{"source": "patent US9176064B2", "about": "“Bisubstrate fluorescent probes for protein kinase CK2” (University of Tartu, priority 2012, dated 2015)", "test_in_all_cases": "Kinase panel residual activity", "assay_type_in_all_cases": "biochemical", "conditions_in_all_cases": "compound at 1 micromolar", "key": {"IKKb": {"target": "T1, IKKb (Homo sapiens, UniProt O14920)", "T1 sequence (O14920 1-756)": "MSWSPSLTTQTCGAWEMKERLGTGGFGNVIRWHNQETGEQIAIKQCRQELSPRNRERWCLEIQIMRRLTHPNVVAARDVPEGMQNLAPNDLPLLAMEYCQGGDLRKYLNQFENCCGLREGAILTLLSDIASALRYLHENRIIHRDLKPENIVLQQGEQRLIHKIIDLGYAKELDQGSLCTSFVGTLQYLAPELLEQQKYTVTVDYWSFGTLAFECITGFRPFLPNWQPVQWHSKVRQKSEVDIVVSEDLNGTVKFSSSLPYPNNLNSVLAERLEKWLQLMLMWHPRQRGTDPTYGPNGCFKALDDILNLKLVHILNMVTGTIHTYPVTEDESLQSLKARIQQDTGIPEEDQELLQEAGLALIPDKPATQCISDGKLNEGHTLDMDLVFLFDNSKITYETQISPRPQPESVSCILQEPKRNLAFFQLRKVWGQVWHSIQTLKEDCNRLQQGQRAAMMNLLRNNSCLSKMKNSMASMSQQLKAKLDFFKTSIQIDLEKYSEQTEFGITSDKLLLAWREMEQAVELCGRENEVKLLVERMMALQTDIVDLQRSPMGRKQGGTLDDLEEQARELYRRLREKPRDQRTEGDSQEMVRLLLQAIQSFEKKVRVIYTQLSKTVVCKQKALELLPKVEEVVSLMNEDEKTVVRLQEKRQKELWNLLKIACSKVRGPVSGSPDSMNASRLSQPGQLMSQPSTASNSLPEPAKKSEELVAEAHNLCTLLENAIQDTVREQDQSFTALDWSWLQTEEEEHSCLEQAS"}, "PIM3": {"target": "PIM3 (Homo sapiens, UniProt Q86V86)"}, "TSSK1": {"target": "T2, TSSK1 (Homo sapiens, UniProt Q9BXA7)", "T2 sequence (Q9BXA7 1-367)": "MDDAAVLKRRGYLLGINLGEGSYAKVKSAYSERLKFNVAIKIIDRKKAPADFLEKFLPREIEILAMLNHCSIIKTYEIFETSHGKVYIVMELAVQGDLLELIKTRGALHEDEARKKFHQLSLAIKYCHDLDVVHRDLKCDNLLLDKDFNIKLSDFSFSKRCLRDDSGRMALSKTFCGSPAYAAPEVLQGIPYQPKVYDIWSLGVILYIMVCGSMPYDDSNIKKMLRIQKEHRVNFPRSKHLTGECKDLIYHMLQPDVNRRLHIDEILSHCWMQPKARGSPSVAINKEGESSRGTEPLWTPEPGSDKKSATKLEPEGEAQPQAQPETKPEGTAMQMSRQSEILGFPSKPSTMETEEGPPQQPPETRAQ"}, "MLK3": {"target": "MLK3 (Homo sapiens, UniProt Q16584)", "sequence (Q16584 whole entry, species assumed)": "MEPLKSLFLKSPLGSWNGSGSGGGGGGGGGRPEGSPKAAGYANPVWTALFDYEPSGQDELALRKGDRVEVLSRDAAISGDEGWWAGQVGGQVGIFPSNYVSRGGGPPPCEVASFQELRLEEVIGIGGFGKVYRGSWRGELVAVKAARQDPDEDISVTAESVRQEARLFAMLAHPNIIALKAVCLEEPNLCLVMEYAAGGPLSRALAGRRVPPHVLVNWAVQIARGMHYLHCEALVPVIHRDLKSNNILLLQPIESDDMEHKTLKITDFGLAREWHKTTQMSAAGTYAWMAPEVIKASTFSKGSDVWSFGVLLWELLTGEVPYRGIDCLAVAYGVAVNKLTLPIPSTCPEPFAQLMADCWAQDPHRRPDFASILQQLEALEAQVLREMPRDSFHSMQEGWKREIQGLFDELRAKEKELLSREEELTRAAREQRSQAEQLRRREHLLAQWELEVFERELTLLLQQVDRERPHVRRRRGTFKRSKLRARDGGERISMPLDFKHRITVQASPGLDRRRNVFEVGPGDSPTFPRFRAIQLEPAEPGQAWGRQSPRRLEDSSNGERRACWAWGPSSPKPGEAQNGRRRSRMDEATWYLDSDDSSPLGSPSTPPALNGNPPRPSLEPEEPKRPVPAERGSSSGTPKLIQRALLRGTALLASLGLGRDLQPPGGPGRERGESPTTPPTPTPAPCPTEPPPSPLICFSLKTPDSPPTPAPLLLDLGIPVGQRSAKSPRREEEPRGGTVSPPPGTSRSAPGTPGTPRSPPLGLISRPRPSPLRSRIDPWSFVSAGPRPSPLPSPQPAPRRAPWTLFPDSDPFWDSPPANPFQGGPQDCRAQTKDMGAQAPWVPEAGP"}, "MSK1": {"target": "MSK1 (Homo sapiens, UniProt O75582)", "sequence (O75582 whole entry, species assumed)": "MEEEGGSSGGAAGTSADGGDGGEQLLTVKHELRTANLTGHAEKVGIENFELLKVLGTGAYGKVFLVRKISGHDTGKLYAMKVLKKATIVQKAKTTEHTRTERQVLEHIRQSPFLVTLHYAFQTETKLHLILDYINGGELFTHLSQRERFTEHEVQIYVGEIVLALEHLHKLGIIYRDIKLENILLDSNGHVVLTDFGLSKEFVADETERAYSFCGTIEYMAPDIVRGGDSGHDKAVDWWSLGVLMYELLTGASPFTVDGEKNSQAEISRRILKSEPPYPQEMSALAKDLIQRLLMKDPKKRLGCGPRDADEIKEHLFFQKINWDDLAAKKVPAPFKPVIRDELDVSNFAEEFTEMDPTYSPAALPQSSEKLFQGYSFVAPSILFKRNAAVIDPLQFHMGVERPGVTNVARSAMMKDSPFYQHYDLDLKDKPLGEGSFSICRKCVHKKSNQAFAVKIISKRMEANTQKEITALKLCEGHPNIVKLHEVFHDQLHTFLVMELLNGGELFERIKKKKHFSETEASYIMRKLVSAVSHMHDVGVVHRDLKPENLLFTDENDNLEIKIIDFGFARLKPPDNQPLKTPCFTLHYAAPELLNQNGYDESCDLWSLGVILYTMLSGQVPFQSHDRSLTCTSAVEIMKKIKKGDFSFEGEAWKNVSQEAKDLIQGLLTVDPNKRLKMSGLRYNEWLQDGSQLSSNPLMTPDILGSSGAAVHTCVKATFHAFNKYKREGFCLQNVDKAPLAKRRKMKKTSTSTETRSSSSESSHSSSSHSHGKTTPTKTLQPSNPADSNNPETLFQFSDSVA"}, "PKCz": {"target": "T3, PKCz (Homo sapiens, UniProt Q05513)", "T3 sequence (Q05513 1-592)": "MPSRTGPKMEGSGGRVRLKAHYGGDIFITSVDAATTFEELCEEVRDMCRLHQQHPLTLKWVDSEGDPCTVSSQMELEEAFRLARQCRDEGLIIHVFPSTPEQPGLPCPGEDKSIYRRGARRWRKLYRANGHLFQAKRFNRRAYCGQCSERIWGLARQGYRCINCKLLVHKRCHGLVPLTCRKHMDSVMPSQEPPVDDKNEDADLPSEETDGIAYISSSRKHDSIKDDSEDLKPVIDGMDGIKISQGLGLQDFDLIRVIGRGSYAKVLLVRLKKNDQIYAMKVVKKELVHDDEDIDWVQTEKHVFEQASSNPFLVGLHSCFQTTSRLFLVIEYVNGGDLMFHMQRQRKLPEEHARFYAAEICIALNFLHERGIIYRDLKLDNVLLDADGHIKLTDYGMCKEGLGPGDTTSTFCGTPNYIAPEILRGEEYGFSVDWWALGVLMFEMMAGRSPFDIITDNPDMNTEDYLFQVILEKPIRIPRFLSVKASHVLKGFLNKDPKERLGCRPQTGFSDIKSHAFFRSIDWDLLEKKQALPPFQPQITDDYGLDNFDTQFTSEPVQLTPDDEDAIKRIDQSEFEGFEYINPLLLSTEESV"}, "Aurora A": {"target": "T4, Aurora A (Homo sapiens, UniProt O14965)", "T4 sequence (O14965 1-403)": "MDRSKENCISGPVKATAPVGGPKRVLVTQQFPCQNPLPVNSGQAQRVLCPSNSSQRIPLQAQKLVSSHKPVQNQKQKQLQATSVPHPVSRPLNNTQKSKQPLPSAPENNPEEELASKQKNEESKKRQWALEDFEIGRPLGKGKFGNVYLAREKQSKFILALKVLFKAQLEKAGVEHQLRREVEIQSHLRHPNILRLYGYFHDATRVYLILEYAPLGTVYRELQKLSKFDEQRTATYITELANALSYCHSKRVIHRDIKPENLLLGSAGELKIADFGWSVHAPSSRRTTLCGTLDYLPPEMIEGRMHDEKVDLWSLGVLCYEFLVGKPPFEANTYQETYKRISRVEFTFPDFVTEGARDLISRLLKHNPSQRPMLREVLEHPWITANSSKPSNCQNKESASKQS"}}, "note": "Where a SMILES comes first, the peptide text is derived from it. [ ]: non-standard residue; d: D form. The star is where a group is joined. X1 = O=C(CCCCCCCn1cnc2c(Br)c(Br)c(Br)c(Br)c21)*", "data": [{"smiles": "NCCCC[C@H](NC(=O)[C@H](CC(=O)O)NC(=O)[C@H](CC(=O)O)NC(=O)[C@H](CC(=O)O)NC(=O)[C@H](CC(=O)O)NC(=O)[C@H](CC(=O)O)NC(=O)[C@@H](CC(=O)O)NC(=O)CCCCCCCn1cnc2c(Br)c(Br)c(Br)c(Br)c21)C(=O)O", "note": "[TBBI-OcA-(D-Asp)-(L-Asp)5-(L-Lys)-OH] (X1-[dD]DDDDDK-OH)", "values": [{"measurement": "remaining activity at 1 µM", "setting": "IKKb", "value": 55, "unit": "%"}, {"measurement": "remaining activity at 1 µM", "setting": "PIM3", "value": 59, "unit": "%"}, {"measurement": "remaining activity at 1 µM", "setting": "TSSK1", "value": 86, "unit": "%"}, {"measurement": "remaining activity at 1 µM", "setting": "MLK3", "value": 89, "unit": "%"}, {"measurement": "remaining activity at 1 µM", "setting": "MSK1", "value": 102, "unit": "%"}, {"measurement": "remaining activity at 1 µM", "setting": "PKCz", "value": 105, "unit": "%"}, {"measurement": "remaining activity at 1 µM", "setting": "Aurora A", "value": 118, "unit": "%"}]}]}
